Source: article PMC5036196

B1: ARB2-M1 (residues Gln463, His467 and Asp471 mutated to Ala) (domain or fragment)
chain: LQKAIRAQQQAYLSAEFNFVTLPLVSMDLPDNTVLCTPNISESNTIIIVVHDTSDIWAKRNVISGTIDLSSSVIIDNSLDFIKWGLDRKYGIIDVNIPLTLFEPDNYSGMITSQEVLIYLWDNYIKYFPSVAKIAFIGIGDSYSGIVHLLGHRDTRAVTKTVINFLGDKQLKPLVPLVDETLSEWYFKNSLIFSNNSHQCWKENESRKPRKKFGRVLRCDTDGLNNIIEERFEEATDFILDS
B2: ARB2-M2 (residues Tyr468 and Glu472 mutated to Ala) (domain or fragment)
chain: LQKAIRQQQQHALSDAFNFVTLPLVSMDLPDNTVLCTPNISESNTIIIVVHDTSDIWAKRNVISGTIDLSSSVIIDNSLDFIKWGLDRKYGIIDVNIPLTLFEPDNYSGMITSQEVLIYLWDNYIKYFPSVAKIAFIGIGDSYSGIVHLLGHRDTRAVTKTVINFLGDKQLKPLVPLVDETLSEWYFKNSLIFSNNSHQCWKENESRKPRKKFGRVLRCDTDGLNNIIEERFEEATDFILDS
B3: ARB2 domain of Hda1 (Hda1^457–698) (domain or fragment)
chain: LQKAIRQQQQHYLSDEFNFVTLPLVSMDLPDNTVLCTPNISESNTIIIVVHDTSDIWAKRNVISGTIDLSSSVIIDNSLDFIKWGLDRKYGIIDVNIPLTLFEPDNYSGMITSQEVLIYLWDNYIKYFPSVAKIAFIGIGDSYSGIVHLLGHRDTRAVTKTVINFLGDKQLKPLVPLVDETLSEWYFKNSLIFSNNSHQCWKENESRKPRKKFGRVLRCDTDGLNNIIEERFEEATDFILDS
B4: ARB2-M4 (residues His604, His608 and Arg609 mutated to Ala) (domain or fragment)
chain: LQKAIRQQQQHYLSDEFNFVTLPLVSMDLPDNTVLCTPNISESNTIIIVVHDTSDIWAKRNVISGTIDLSSSVIIDNSLDFIKWGLDRKYGIIDVNIPLTLFEPDNYSGMITSQEVLIYLWDNYIKYFPSVAKIAFIGIGDSYSGIVALLGAADTRAVTKTVINFLGDKQLKPLVPLVDETLSEWYFKNSLIFSNNSHQCWKENESRKPRKKFGRVLRCDTDGLNNIIEERFEEATDFILDS
B5: ARB2-M3 (residues Val481, Ser482, Met483 and Asp484 mutated to Ala) (domain or fragment)
chain: LQKAIRQQQQHYLSDEFNFVTLPLAAAALPDNTVLCTPNISESNTIIIVVHDTSDIWAKRNVISGTIDLSSSVIIDNSLDFIKWGLDRKYGIIDVNIPLTLFEPDNYSGMITSQEVLIYLWDNYIKYFPSVAKIAFIGIGDSYSGIVHLLGHRDTRAVTKTVINFLGDKQLKPLVPLVDETLSEWYFKNSLIFSNNSHQCWKENESRKPRKKFGRVLRCDTDGLNNIIEERFEEATDFILDS

These binders were tested against yeast histone H2A-H2B dimer (Saccharomyces cerevisiae) (UniProt P04911) (assay: ITC; ITC200 at 20 °C; 0.5 mM ARB2 or mutant in the injector, 0.2 mM H2A/B or 0.25 mM H3/4 in the sample cell; 25 mM Tris-HCl pH 7.5, 200 mM NaCl; single-site fitting model).
B1 was tested, and the Kd was 20.4 µM, the dH was -6.86 kcal/mol and the stoichiometry N was 0.77. Work on B2 yielded a Kd of 16.9 µM, a dH of -8.9 kcal/mol and a stoichiometry N of 0.64. Work on B3 yielded a Kd of 5.46 µM, a dH of -12.9 kcal/mol and a stoichiometry N of 0.78. In the case of B4, the Kd is reported as 17.4 µM, the dH is reported as -11.5 kcal/mol and the stoichiometry N is reported as 0.8. Work on B5 yielded a Kd of 27.7 µM, a dH of -11.6 kcal/mol and a stoichiometry N of 0.74.
